This note sets out measurements from patent US20220396632A1 (VERSEAU THERAPEUTICS, published 2022).

Residue numbers refer to the chain shown, from its start.

Assay [1] deals with T1, Biotin PSGL-1(42-62) E56A peptide (C-terminal Lys-biotin).
T1 peptide: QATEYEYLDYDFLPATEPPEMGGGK
The assay is described as follows: ELISA; against wild-type PSGL-1 42-62. (In general: An ELISA detects its analyte on a solid surface through an enzyme-linked reagent.)

Assay [2] deals with T2, PSGL-1 endogenously expressed on HL-60 cells (UniProt Q14242 42-412).
T2 construct: whole, on cells
T2 sequence (looked up): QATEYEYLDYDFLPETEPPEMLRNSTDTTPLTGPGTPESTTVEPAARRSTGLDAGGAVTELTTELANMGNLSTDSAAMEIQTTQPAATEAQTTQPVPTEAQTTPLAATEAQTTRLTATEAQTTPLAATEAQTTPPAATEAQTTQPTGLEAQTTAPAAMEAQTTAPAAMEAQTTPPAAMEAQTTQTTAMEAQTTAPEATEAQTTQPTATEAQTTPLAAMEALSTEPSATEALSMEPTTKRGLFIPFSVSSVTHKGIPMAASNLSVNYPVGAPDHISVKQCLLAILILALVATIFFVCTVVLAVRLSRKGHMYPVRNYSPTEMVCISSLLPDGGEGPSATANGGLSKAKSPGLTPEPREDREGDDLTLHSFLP
The assay can be described thus: flow cytometry on HL-60 cells; against parent 20I15. As to the method: (§1) A typical flow cytometry assay was performed by resuspending HL-60 cells in FACS buffer (5% FBS and 0.05% Sodium Azide in PBS, pH 7.2) on ice, pelleting cells by centrifugation at 500×g for 3 min, washing cells with FACS buffer, and then blocking Fc receptors on the cells with Fc block (human TruStain FcX™, BioLegend Cat. #422302) on ice for 10 min. After washing, 50,000 cells/50 ul in FACS buffer was added to each well of a 96-well round bottomed plate (Costar, Cat. #3797), and 50 ul of serially diluted (0.06 nM-1.0 uM) test or isotype control antibody was added into duplicate wells. The plate was covered and incubated on ice for 1 h. After washing, Phycoerythrin (PE) conjugated anti-human IgG secondary antibody (Abcam; Cat. #ab99825) was added to each well and the plate incubated in the dark on ice for 30 min. After washing, the cells were fixed (1% paraformaldhyde).

The target in assay [3] is T3, Biotin PSGL-1(42-62) E45A peptide (C-terminal Lys-biotin).
T3 peptide: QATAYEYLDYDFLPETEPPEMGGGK
The assay is described as follows: ELISA; against wild-type PSGL-1 42-62.

Assay [4] deals with T4, Biotin PSGL-1(42-62) Y46A peptide (C-terminal Lys-biotin).
T4 peptide: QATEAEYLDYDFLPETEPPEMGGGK
The assay can be described thus: ELISA; against wild-type PSGL-1 42-62.

Assay [5] concerns the target T5, Biotin PSGL-1(42-62) L54A peptide (C-terminal Lys-biotin).
T5 peptide: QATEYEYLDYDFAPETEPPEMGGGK
The assay can be described thus: ELISA; against wild-type PSGL-1 42-62.

Assay [6] has as its target T6, Biotin Y46,48,51(SO3) PSGL-1(42-62) peptide (human, sulfotyrosine at Y46, Y48 and Y51; C-terminal Lys-biotin).
T6 construct: also called fully sulfated N-terminal PSGL-1 peptide
T6 peptide: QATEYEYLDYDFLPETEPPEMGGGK
The assay is described as follows: capture ELISA; against parent 18F02. On the procedure:
A typical ELISA for N-terminal PSGL-1 reactive humanized mAbs binding to Y_{46,48,51}(SO₃) PSGL-1₍₄₂₋₆₂₎ involved coating high binding half-well plates (Corning Cat. #3690) with 3 ug/mL/25 ul per well of the mAbs or with an isotype hG4 control in PBS, pH 7.4, overnight at 4° C. […] Biotinylated Y_{46,48,51}(SO₃) PSGL-1₍₄₂₋₆₂₎ was added (25 ul per well) in duplicate at 2.8 uM in assay buffer (blocking buffer containing 0.05% tween 20) and serially diluted into test and control (just blocked) wells, and the plate incubated for 45 min at 37° C. The plate was washed ×3 and an appropriate HRP-conjugated streptavidin was added (25 ul per well; Jackson Immunoresearch, Cat. #016-030-084) and the plate was incubated for 45 min at 37° C. […] For each antibody, an EC50 value was determined from sigmoidal fitted peptide titration curve.

Assay [7] addresses T7, Biotin PSGL-1(42-62) D50A peptide (C-terminal Lys-biotin).
T7 peptide: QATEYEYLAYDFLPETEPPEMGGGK
The assay can be described thus: ELISA; against wild-type PSGL-1 42-62.

The target in another assay is T8, 42-80 (C-terminal Lys-biotin).
T8 construct: also called Biotin PSGL-1(42-80) peptide
T8 peptide: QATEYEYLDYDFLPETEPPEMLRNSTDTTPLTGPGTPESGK
The assay is described as follows: ELISA, streptavidin-immobilized biotin peptide, 10 nM mAb [cont.]. On the procedure: A typical ELISA experiment involved binding of a single concentration or serially diluted mAb in assay buffer (3% BSA in PBS containing 0.05% Tween®20, pH 7.4) onto BSA blocked high binding microtiter plate half-wells (Corning Cat. #3690), which contained PSGL-1 protein or streptavidin-immobilized biotin peptide. After incubation for 45 min. at 37° C., the plate was washed 3 times with wash buffer (PBS containing 0.05% Tween®20, pH 7.4), and an appropriate HRP-conjugated secondary antibody added (25 ul/well) (HRP goat anti-mouse or anti-human IgG). After 45 min. incubation at 37° C., the plate was washed and antibody bound to plate-immobilized target was determined at A450 nm using HRP substrate (3,3′5,5′-tetramethylbenzidine (TMB)). For each antibody, duplicate values were averaged and assay background subtracted.

In assay [8] the target is T9, Biotin PSGL-1(105-125) peptide (human, N-terminal acetyl; C-terminal Lys-biotin).
T9 peptide: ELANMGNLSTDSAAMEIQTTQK
The assay is described as follows: ELISA; against WT PSGL-1(ECD)-hFc1. The essentials: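 mAb, single concentration or serial dilution, bound 45 min at 37 °C to wells with PSGL-1 protein or streptavidin-captured biotin peptide in 3% BSA/PBS-0.05% Tween 20, pH 7.4. HRP anti-mouse or anti-human IgG, TMB, A450 nm; duplicates averaged, background subtracted.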

Assay [9] deals with T2, PSGL-1 endogenously expressed on HL-60 …. The assay can be described thus: flow cytometry on HL-60 cells; against parent 19L04. As to the method: as §1
In general terms: A flow cytometer gives signals particle by particle.

B1: 43B6 (antibody, V domains shown)
VH: EVQLQQSGPDLVKPGALVKISCKASGYSFTAYYIHWVKQSHGKSLEWIGRVNPNTGGTSYNPKFKGKAILNVDKSSSTAYMELRSLTSEDSAVYYCARSGSPYYRYDDWGQGTTLTVSS
VL: ENVLTQSPAIMSASPGEKVTMTCRASSTVNSTYLHWFQQKSGASPKLWIYGSSNLASGVPARFSGSGSGTSYSLTISSVEAEDAATYYCQQYSGYPLTFGAGTTLELK
notes: Control anti-PSGL-1 mAb, recombinant; only variable domains given; also called 43B3
With B1, the EC50Ala/EC50 wt in assay [1] turned out to be 22.3 fold.

B2: 20I15 (antibody, V domains shown)
VH: EVKLVESGGGLVQPGGSLSLSCAASGFTFTDYYMSWVRQPPGKALEWLGFIRNKANGYTTEYSASVKGRFTISRDNSQSILYLQMNALRAEDSATYYCARTYLRRGYFDVWGTGTTVTVSS
VL: DIVLTQSPASLAVSLGQRATISCRASKSVSTSGYSYMHWFQQKPGQPPKLLIYLASNLESGVPARFSGSGSGTDFTLNIHPVEEEDAATYYCQHSRELPLTFGAGTKLELK
notes: From mouse immunisation; only variable domains given; also called 20115
For the molecule B2, in assay [2], the “HL-60 EC50 (normalized)” value came out at 1 fold.

B3: 16L15 (antibody, V domains shown)
VH: DVKLVESGGGLVKLGGSLKLSCAASGFTFSSYYMSWVRQTPEKRLEWVATISNGGGSTYYPDSVKDRFTISRDNAKNTLYLQMSSLNSEDTAVYYCAKPLYYSNPWFAYWGQGTLVTVSA
VL: DVLLTQTPLSLPVSLGDQASISCRSSQSIVHSNGNTYLEWYLQKPGQSPKLLIYKVSNRFSGVPDRFSGSGSGTDFTLKISRVEAEDLGVYYCFQGSHVPRTFGGGTKLEIK
notes: From mouse immunisation; only variable domains given
For the molecule B3, the figures for the EC50Ala/EC50 wt in [3] and in assay [4] were 5.6 fold and 4.7 fold, respectively.

B4: 9F9 (antibody, V domains shown)
VH: EVQLVETGGGLVQPKGSLKLSCAASGFTFNTNAMNWVRQAPGKGLEWVARIRSKSNNYATYYADSVKDRFTISRDDTQSMIYLQMNNLKTEDTGMYYCVRGGSYWYFDVWGAGTTVTVSS
VL: B3 VL with L4M, H31N, R101W
notes: Control anti-PSGL-1 mAb, recombinant; only variable domains given; also called 9F6
B4 showed an EC50Ala/EC50 wt in [5] of 14.4 fold.

B5: 18F02 (antibody, V domains shown)
VH: QVQLQQPGAELVKPGASVKLSCKASGYTFTSYWMHWVKQRPGQGLEWIGMIHPNSGRTNYNEKFKSKATLTVDKSSSTAYMQLSSLTSEDSAVYYCARSDYWGQGTTLTVSS
VL: DIVMTQAAFSNPVTLGTSASISCRSSKSLLHSDGITYLYWFLQRPGQSPQLLIYRMSNLASGVPDRFSGSGSGTDFTLRISRVEAEDVGVYYCAQMLEFPRTFGGGTKLEIK
notes: as for B3
In the case of B5, the “N-term peptide EC50 (normalized)” value in assay [6] was found to be 1 fold. In assay [7], this molecule registered an EC50Ala/EC50 wt of 35.6 fold. For the same molecule, the binding result with 42-80 is given as “binds”.

B6: 16E17 (antibody, V domains shown)
VH: QIQLVQSGPELKKPGETVKISCKASGYAFTTYGMSWVKQAPGKGLKWMGWINTYSGVPKYADDFKGRFAFSLETSASTAYLHINNLKNEDTATYFCGRHYYGSSYFDYWGQGTTLTVSS
VL: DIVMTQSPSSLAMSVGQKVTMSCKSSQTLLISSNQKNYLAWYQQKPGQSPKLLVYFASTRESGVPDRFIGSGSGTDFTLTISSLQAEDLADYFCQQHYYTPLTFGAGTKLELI
notes: as for B3
Consider B6, for which the EC50/EC50WTprot in [8] is ~100 fold.

B7: 19L04 (antibody, IgG4, V domains shown)
VH: B6 VH with A28T, K59T, H82Q, N88I, G97A, S104H
VL: DIMMTQSPSSLAMSVGQKVTLRCKSSQSLLNSSNQKNYLAWYQQKPGQSPKLLVYFASTRESGVPVRFIGSGSGTDFTLTISSMQAEDLADYFCQQHYFSPLTFGAGTKLELK
notes: as for B3
Turning to B7, the “HL-60 EC50 (normalized)” value in assay [9] amounted to 1 fold.
